The record followed here is US20200024322A1 (Eli Lilly, published 2020).

Sequences and labels used below:
T1: human GIP receptor (human, UniProt P48546 22-466)
T1 construct: whole, on cells; also called hGIPR; hGIP-R
T1 sequence (looked up): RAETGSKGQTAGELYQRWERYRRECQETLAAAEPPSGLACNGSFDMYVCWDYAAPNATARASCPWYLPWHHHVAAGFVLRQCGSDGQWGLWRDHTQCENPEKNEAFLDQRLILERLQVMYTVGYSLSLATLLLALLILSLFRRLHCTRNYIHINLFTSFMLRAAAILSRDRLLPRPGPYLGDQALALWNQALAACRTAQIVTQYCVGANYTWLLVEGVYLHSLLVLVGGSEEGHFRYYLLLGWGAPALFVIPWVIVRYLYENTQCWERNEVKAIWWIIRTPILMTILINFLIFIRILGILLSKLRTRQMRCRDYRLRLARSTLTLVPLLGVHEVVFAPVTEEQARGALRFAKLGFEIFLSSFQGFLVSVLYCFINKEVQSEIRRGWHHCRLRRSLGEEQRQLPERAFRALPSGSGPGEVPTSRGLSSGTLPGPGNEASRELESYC

B1: Example 219 (peptide)
peptide: YXEGTXTSDYSIXLDEKAQXEFIXYLIEGGPSSG
modifications: Aib2; αMeF(2F)6; αMeL13; K17((2-[2-(2-Amino-ethoxy)-ethoxy]-acetyl)2-(γ-Glu)-CO-(CH2)16-CO2H); Aib20; D-Glu24; C-terminal NH2
B2: Example 304 (peptide)
peptide: B1 peptide with X6F, E16K, X24E
modifications: Aib2; αMeL13; K17((2-[2-(2-Amino-ethoxy)-ethoxy]-acetyl)2-(γ-Glu)-CO-(CH2)16-CO2H); Aib20; C-terminal NH2
B3: Example 306 (peptide)
peptide: B1 peptide with X6F, E16K, X24E, E28A
modifications: Aib2; αMeL13; K17((2-[2-(2-Amino-ethoxy)-ethoxy]-acetyl)2-(γ-Glu)-CO-(CH2)16-CO2H); Aib20; C-terminal NH2
B4: Example 228 (peptide)
peptide: B1 peptide with E16K
modifications: Aib2; αMeF6; αMeL13; K17((2-[2-(2-Amino-ethoxy)-ethoxy]-acetyl)2-(γ-Glu)-CO-(CH2)18-CO2H); Aib20; D-Glu24; C-terminal NH2
B5: Example 295 (peptide)
peptide: Y[Aib]EGTFTSDYSILLDKK([AEEA-AEEA-γGlu-C18 diacid])AQHAFIEYLIEGG-NH2
modifications: N-terminus assumed
SMILES: CC[C@H](C)[C@H](NC(=O)[C@H](CC(C)C)NC(=O)[C@H](Cc1ccc(O)cc1)NC(=O)[C@H](CCC(=O)O)NC(=O)[C@@H](NC(=O)[C@H](Cc1ccccc1)NC(=O)[C@H](C)NC(=O)[C@H](Cc1c[nH]cn1)NC(=O)[C@H](CCC(N)=O)NC(=O)[C@H](C)NC(=O)[C@H](CCCCNC(=O)COCCOCCNC(=O)COCCOCCNC(=O)CC[C@H](NC(=O)CCCCCCCCCCCCCCCCC(=O)O)C(=O)O)NC(=O)[C@H](CCCCN)NC(=O)[C@H](CC(=O)O)NC(=O)[C@H](CC(C)C)NC(=O)[C@H](CC(C)C)NC(=O)[C@@H](NC(=O)[C@H](CO)NC(=O)[C@H](Cc1ccc(O)cc1)NC(=O)[C@H](CC(=O)O)NC(=O)[C@H](CO)NC(=O)[C@@H](NC(=O)[C@H](Cc1ccccc1)NC(=O)[C@@H](NC(=O)CNC(=O)[C@H](CCC(=O)O)NC(=O)C(C)(C)NC(=O)[C@@H](N)Cc1ccc(O)cc1)[C@@H](C)O)[C@@H](C)O)[C@@H](C)CC)[C@@H](C)CC)C(=O)N[C@@H](CCC(=O)O)C(=O)NCC(=O)NCC(N)=O
B6: Example 220 (peptide)
peptide: YXEGTXTSDYSIXLDEKAQXEFIXYLIEGG
modifications: Aib2; αMeF(2F)6; αMeL13; K17((2-[2-(2-Amino-ethoxy)-ethoxy]-acetyl)2-(γ-Glu)-CO-(CH2)16-CO2H); Aib20; D-Glu24; C-terminal NH2
B7: Example 315 (peptide)
peptide: YXEGTFTSDYSILLDKKAQXAFIEYLIEGGPSSGAPPPS
modifications: Aib2; K17((2-[2-(2-Amino-ethoxy)-ethoxy]-acetyl)2-(γ-Glu)-CO-(CH2)16-CO2H); Aib20; C-terminal NH2
B8: Example 352 (peptide)
peptide: B7 peptide with Y1X, L13X, E24X, E28A
modifications: D-Tyr1; Aib2; αMeL13; K17((2-[2-(2-Amino-ethoxy)-ethoxy]-acetyl)2-(γ-Glu)-CO-(CH2)18-CO2H); Aib20; D-Glu24; C-terminal NH2
B9: Example 356 (peptide)
peptide: B7 peptide with Y1X, L13X, E24X
modifications: D-Tyr1; Aib2; αMeL13; K17((2-[2-(2-Amino-ethoxy)-ethoxy]-acetyl)2-(γ-Glu)-CO-(CH2)18-CO2H); Aib20; D-Glu24; C-terminal NH2
B10: Example 296 (peptide)
peptide: Y[Aib]EGTFTSDYSILLDKK([AEEA-AEEA-γGlu-C18 diacid])AQKAFIEYLIEGGPSSG-NH2
modifications: N-terminus assumed
SMILES: CC[C@H](C)[C@H](NC(=O)[C@H](CC(C)C)NC(=O)[C@H](Cc1ccc(O)cc1)NC(=O)[C@H](CCC(=O)O)NC(=O)[C@@H](NC(=O)[C@H](Cc1ccccc1)NC(=O)[C@H](C)NC(=O)[C@H](CCCCN)NC(=O)[C@H](CCC(N)=O)NC(=O)[C@H](C)NC(=O)[C@H](CCCCNC(=O)COCCOCCNC(=O)COCCOCCNC(=O)CC[C@H](NC(=O)CCCCCCCCCCCCCCCCC(=O)O)C(=O)O)NC(=O)[C@H](CCCCN)NC(=O)[C@H](CC(=O)O)NC(=O)[C@H](CC(C)C)NC(=O)[C@H](CC(C)C)NC(=O)[C@@H](NC(=O)[C@H](CO)NC(=O)[C@H](Cc1ccc(O)cc1)NC(=O)[C@H](CC(=O)O)NC(=O)[C@H](CO)NC(=O)[C@@H](NC(=O)[C@H](Cc1ccccc1)NC(=O)[C@@H](NC(=O)CNC(=O)[C@H](CCC(=O)O)NC(=O)C(C)(C)NC(=O)[C@@H](N)Cc1ccc(O)cc1)[C@@H](C)O)[C@@H](C)O)[C@@H](C)CC)[C@@H](C)CC)C(=O)N[C@@H](CCC(=O)O)C(=O)NCC(=O)NCC(=O)N1CCC[C@H]1C(=O)N[C@@H](CO)C(=O)N[C@@H](CO)C(=O)NCC(N)=O
B11: Example 349 (peptide)
peptide: XXEGTFTSDYSIXLDXKAQXEFIEYLIAGGPSSGAPPPS
modifications: D-Tyr1; Aib2; αMeL13; Orn16; K17((2-[2-(2-Amino-ethoxy)-ethoxy]-acetyl)2-(γ-Glu)-CO-(CH2)18-CO2H); Aib20; C-terminal NH2
B12: Example 359 (peptide)
peptide: B11 peptide with I23V
modifications: D-Tyr1; Aib2; αMeL13; Orn16; K17((2-[2-(2-Amino-ethoxy)-ethoxy]-acetyl)2-(γ-Glu)-CO-(CH2)18-CO2H); Aib20; C-terminal NH2
B13: Example 213 (peptide)
peptide: YXEGTXTSDYSIXLDEKAQXEFIXYLIEGGPSSGAPPPS
modifications: Aib2; αMeF6; αMeL13; K17((2-[2-(2-Amino-ethoxy)-ethoxy]-acetyl)2-(γ-Glu)-CO-(CH2)16-CO2H); Aib20; D-Glu24; C-terminal NH2
B14: Example 221 (peptide)
peptide: B13 peptide
modifications: Aib2; αMeF(2F)6; αMeL13; K17((2-[2-(2-Amino-ethoxy)-ethoxy]-acetyl)2-(γ-Glu)-CO-(CH2)16-CO2H); Aib20; D-Glu24; C-terminal NH2

Where a chain is given by its changes, count along the chain named. Numbered stars: 1 amine (or outer) side, 2 acyl side, 3 side chain; on linkers, the order of the positions; unused ones are H or OH. Square brackets hold non-standard residues; d marks the D form. Side chains are listed from the residue outwards. Ends that are not written are not given here. * marks the point of attachment. C18 diacid = O=C(O)CCCCCCCCCCCCCCCCC(=O)*; γGlu = O=C(O)[C@H](CCC(=O)[*:2])N[*:1]; AEEA = NCCOCCOCC(=O)O; Aib = CC(C)(N)C(=O)O

T2 sequence (P47871 26-477): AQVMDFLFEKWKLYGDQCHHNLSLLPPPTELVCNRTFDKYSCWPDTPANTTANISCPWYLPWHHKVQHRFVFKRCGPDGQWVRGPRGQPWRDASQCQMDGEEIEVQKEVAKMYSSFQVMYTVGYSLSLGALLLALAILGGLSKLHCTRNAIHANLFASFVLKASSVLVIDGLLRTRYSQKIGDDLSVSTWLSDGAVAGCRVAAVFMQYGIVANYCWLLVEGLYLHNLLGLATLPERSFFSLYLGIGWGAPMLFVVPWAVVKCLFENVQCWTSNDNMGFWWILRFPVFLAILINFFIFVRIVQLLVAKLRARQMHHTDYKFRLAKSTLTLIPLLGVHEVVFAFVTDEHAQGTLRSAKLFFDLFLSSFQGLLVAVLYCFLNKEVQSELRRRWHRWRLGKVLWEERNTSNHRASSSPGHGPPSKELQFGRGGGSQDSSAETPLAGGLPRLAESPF

For the first assay, the target named is T1, human GIP receptor. In words: [125I]-GIP competition SPA, hGIPR membranes.
By Ki is commonly meant the dissociation constant of the complex between target and ligand, obtained from inhibition or displacement. Read a low Ki as a stronger hold on the target. In turn, B1 displayed an inhibition constant (Ki) of 0.0689 nM.

Molecule B2 displayed a Ki of 0.0499 nM.

In the case of B3, the Ki was 0.0349 nM.

For the molecule B4, the Ki turned out to be 0.028 nM.

Regarding B5, affinity was put at a Ki of 0.181 nM.

B6 displayed a Ki of 0.0919 nM.

B7: the Ki was 0.0677 nM.

For B8, the Ki came to 0.0726 nM.

For the molecule B9, the Ki was 0.35 nM.

For B10, the Ki was 0.444 nM.

Consider B11, for which the affinity, expressed as Ki, was 0.08 nM.

Take B12: the affinity corresponds to a Ki of 0.0874 nM.

As for B13, the Ki is 0.365 nM.

The molecule B14 showed a Ki of 0.0414 nM.

Another assay concerns the target T2, human glucagon receptor (human, UniProt P47871 26-477).
T2 construct: whole, on cells; also called hGcgR; GcgR
In words: [125I]-Gcg competition SPA, hGcgR membranes.
As for B1, affinity was put at a Ki of 373 nM.

B4 came in with a Ki of 182 nM.

Consider B6, for which affinity was put at a Ki of 377 nM.

The molecule B7 gave a Ki of 539 nM.

In turn, B13 yielded a Ki of 544 nM.

In the case of B14, affinity was put at a Ki of 154 nM.

For another assay, the target named is T3, human GLP-1 receptor (human, UniProt P43220 24-463).
T3 construct: whole, on cells; also called hGLP-1R; hGLP1R
In words: [125I]-GLP-1 competition SPA, hGLP-1R membranes. Put shortly:
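Kᵢ values are geometric means (SEM) over replicates run on separate days, derived from IC₅₀ of four-parameter curve fits. Buffer: HEPES 25 mM pH 7.4 with CaCl₂ 2.5 mM, MgCl₂ 1 mM, bacitracin 0.1%, TWEEN-20 0.003%, EDTA-free protease inhibitors.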
With B1, the affinity, expressed as Ki, was 2.01 nM.

The molecule B2 registered a Ki of 4.44 nM.

Regarding B3, the affinity, expressed as Ki, was 2.86 nM.

The molecule B4 returned a Ki of 2.43 nM.

Molecule B5 displayed an inhibitory constant (Ki) of 4.12 nM.

As for B6, the Ki is 2.71 nM.

With B8, the affinity, expressed as Ki, was 3.03 nM.

Molecule B9 showed a Ki of 10.3 nM.

Molecule B10 had an inhibition constant Ki of 3.33 nM.

B11 had a Ki of 1.72 nM.

The molecule B12 gave an inhibition constant (Ki) of 2.59 nM.

B13 displayed a Ki of 2.75 nM.

With B14, the affinity, expressed as Ki, was 1.77 nM.
